B1: PR004669 (antibody, human IgG1, kappa)
heavy: not shown
light: DIVMTQSPLSLPVTLGQPASISCRSSKSLLHSNGKIYLYWFQQRPGQSPRLLIYRMSNLASGVPDRFSGSGSGTDFTLKISRVEAEDVGVYYCMQHLEYPLTFGQGTKLEIKRTVAAPSVFIFPPSDEQLKSGTASVVCLLNNFYPREAKVQWKVDNALQSGNSQESVTEQDSKDSTYSLSSTLTLSKADYEKHKVYACEVTHQGLSSPVTKSFNRGEC
notes: humanized; same VH/VL as PR004525, other heavy chain entry
B2: PR004120 (antibody, human IgG1, kappa, V domains shown)
VH: EVQLVESGGGLVQPKGSLKLSCAASGFTFNTNAMNWVRQAPGKGLEWVARIRSKMNNYATYYADSVKDRFTISRDDSQNMLYLQMNNLKTEDTAMYYCVRGKENGNYYAMDFWGQGTSVTVSA
VL: DIVMTQAATSVLVTPGESVSISCRSSKSLLYSNGNTYLYWFLQRPGQSPQLLIYRMSNLASGVPDRFSGSGSGTAFTLRISRVEAEDVGVYYCMQHLEYPFTFGGGTKLEIKR
notes: chimeric, human IgG1 constant region
B3: PR004124 (antibody, human IgG1, kappa, V domains shown)
VH: EVKVEESGGGLVQPGGSMKLSCAASGFTFNTYAMNWVRQAPGKGLEWVARIRSKSNNYATYYADSVKDRFTISRDDSQSMLYLQMNNLKTEDTAMYYCVRGKDYGNYYAMDFWGQGTSLTVSS
VL: B2 VL with A7D, A8E, T9L, V11N, L12P, P15S, Y31H, I111L
notes: as for B2
B4: PR004129 (antibody, human IgG1, kappa, V domains shown)
VH: B3 VH with K3Q, V4L, E5V, G15K, M18L, F112Y, L119V
VL: DILLTQSPAILSVSPGERVSFSCRSSKSLLHSNGNTYLYWFLQRPGQSPQLLIYRMSNLASGVPDRFSGSGSGTAFTLRISRVEAEDVGVYYCMQHLEYPFTFGSGTKLEINR
notes: as for B2
B5: PR004126 (antibody, human IgG1, kappa, V domains shown)
VH: B2 VH with N30S, A49G, M55S, N79S
VL: B2 VL with M4I, T9P, L12P, Y31H, G105A, I111L
notes: as for B2
B6: PR004130 (antibody, human IgG1, kappa, V domains shown)
VH: B2 VH with P14F, A23G, A24T, N32Y, M55S, Y61F, A123S
VL: B2 VL with T9P, L12P, Y31H, G105S
notes: as for B2
B7: PR004123 (antibody, human IgG1, kappa, V domains shown)
VH: B2 VH with G26E, N32Y, S53T, M55S, Y58F, N79S, Y82F
VL: B2 VL with T9P, L12P, Y31H, I111L
notes: as for B2
B8: PR004127 (antibody, human IgG1, kappa, V domains shown)
VH: B2 VH with S7T, M55S, A123S
VL: B2 VL with I111M
notes: as for B2
B9: PR004519 (antibody, human IgG1, kappa, V domains shown)
VH: EVQLVESGGGLVKPGGSLRLSCAASGFTFNTYAMNWVRQAPGKGLEWVGRIRSKSNNYATYYADSVKDRFTISRDDSKSTLYLQMNSLKTEDTAVYYCVRGKENGNYYAMDFWGQGTTVTVSS
VL: DIVMTQSPLSLPVTPGEPASISCRSSKSLLHSNGKIYLYWFLQKPGQSPQLLIYRMSNLASGVPDRFSGSGSGTDFTLKISRVEAEDVGVYYCMQHLEYPLTFGQGTKLEIKR
notes: humanized variant of PR004128, IgG1 with DE mutation
B10: PR004520 (antibody, human IgG1, kappa)
heavy: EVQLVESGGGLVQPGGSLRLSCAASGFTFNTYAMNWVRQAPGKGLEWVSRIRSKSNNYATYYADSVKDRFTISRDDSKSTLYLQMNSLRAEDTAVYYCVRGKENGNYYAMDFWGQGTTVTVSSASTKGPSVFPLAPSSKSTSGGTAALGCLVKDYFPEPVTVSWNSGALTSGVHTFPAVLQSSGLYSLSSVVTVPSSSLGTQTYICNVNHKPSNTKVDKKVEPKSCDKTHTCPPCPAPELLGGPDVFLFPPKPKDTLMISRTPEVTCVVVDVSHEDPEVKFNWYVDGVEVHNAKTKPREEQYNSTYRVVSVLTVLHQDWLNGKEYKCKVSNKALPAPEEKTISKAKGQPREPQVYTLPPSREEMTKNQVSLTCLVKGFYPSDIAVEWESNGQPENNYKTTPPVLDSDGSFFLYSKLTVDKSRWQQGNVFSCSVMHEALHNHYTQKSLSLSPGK
light: B1 light with L15P, Q17E, Q42L, R44K, R50Q
notes: as for B9

Changes are numbered by the printed parent chain.

Drawing on US20240132603A1 (HARBOUR BIOMED US, published 2024), this text covers EC50 for ten molecules.

The target in one experiment is T1, human CCR8 (human, UniProt P51685 1-355).
T1 construct: whole, on cells; construct used for the overexpressing cell lines is not described; also called hCCR8
T1 sequence (P51685 whole entry): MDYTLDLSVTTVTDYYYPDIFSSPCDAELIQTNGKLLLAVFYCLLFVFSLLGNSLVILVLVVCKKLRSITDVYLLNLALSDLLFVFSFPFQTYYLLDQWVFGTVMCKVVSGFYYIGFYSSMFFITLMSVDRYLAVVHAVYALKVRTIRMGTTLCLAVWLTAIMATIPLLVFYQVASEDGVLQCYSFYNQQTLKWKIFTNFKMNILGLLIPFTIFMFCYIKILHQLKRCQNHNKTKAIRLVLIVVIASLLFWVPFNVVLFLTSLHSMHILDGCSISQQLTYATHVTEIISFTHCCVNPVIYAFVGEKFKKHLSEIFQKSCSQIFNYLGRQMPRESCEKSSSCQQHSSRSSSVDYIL
Briefly: FACS, CHO-K1-hCCR8 cells. The method, then: (§1) Cells overexpressing human CCR8 were digested with pancreatin, counted and resuspended to a cell density of 1E6 cells/mL. The cell suspension was added to a 96-well V-bottom plate at 100 μL/well and centrifuged at 300 g for 5 min, and the supernatant was discarded. The anti-CCR8 antibodies provided herein was used as a primary antibody and diluted in a 5-fold gradient with an FACS buffer (DPBS containing 2% FBS) from 200 nM. The diluted primary antibody was added at 100 μL/well to resuspend the cells, and the mixture was incubated at 4° C. for 1 h. The plate was washed twice with DPBS and centrifuged at 300×g for 5 min, and the supernatant was discarded. The secondary antibody diluted in a 1:1000 ratio with an FACS buffer was added at 100 μL/well to suspend the cells, and the mixture was incubated at 4° C. for 40 min. The plate was washed twice with DPBS and centrifuged at 300×g for 5 min, and the supernatant was discarded. DPBS was added at 200 μL/well to suspend the cells, and the mixture was loaded on an FACS machine for analysis.
Turning to B1, the EC50 came to 0.72 nM.

As to B2, it took 0.54 nM to reach a half-maximal effect (EC50).

For B3, the midpoint of the response, the EC50, lay at 0.45 nM.

For the molecule B4, the EC50 came out at 0.25 nM.

With B5, it took 0.43 nM to reach a half-maximal effect (EC50).

On to B6, for which a half-maximal effect (EC50) was put at 0.46 nM.

Molecule B7 returned an EC50 of 0.46 nM.

The molecule B8 returned an EC50 of 0.56 nM.

For another experiment, the target named is T1, human CCR8. Briefly: FACS, Baf3-hCCR8 cells. The method, then:
as §1
A general note: In flow cytometry, cells or beads pass a laser one at a time.
Molecule B2 registered an EC50 of 0.24 nM.

B3 showed a concentration giving a half-maximal response (EC50) of 0.17 nM.

B4 yielded a half-maximal effective concentration (EC50) of 0.06 nM.

For the molecule B5, the EC50 was found to be 0.18 nM.

In turn, B6 returned an EC50 of 0.2 nM.

On to B7, for which a half-maximal effect (EC50) was put at 0.2 nM.

B8 returned a half-maximal effective concentration (EC50) of 0.26 nM.

The target in a further experiment is T1, human CCR8. Briefly: FACS, CHO-K1-hCCR8 cells. The source holds these as a separate data set. The protocol:
as §1
B9: the half-maximal effective concentration (EC50) came to 0.67 nM.

As to B10, it took 1.31 nM to reach a half-maximal effect (EC50).

The target in another experiment is T2, cynomolgus monkey CCR8 (cynomolgus monkey, UniProt G7NYJ2 1-355).
T2 construct: whole, on cells; also called CynoCCR8
T2 sequence (G7NYJ2 entry or part of it): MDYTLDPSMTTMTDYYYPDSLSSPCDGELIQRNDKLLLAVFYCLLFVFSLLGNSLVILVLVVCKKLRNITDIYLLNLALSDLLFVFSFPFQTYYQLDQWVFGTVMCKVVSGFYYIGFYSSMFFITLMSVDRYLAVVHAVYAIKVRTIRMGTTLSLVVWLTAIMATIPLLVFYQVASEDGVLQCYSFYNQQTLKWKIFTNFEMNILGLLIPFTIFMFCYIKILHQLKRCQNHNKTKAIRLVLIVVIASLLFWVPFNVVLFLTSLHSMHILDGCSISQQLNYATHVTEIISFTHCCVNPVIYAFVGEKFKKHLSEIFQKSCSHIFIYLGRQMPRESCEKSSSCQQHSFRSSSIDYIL
Briefly: FACS, CHO-K1-CynoCCR8 cells. The method, then:
as §1, with “cynomolgus monkey CCR8, CHO-K1-CynoCCR8,” for “human CCR8”
Consider B9, for which the EC50 worked out at 4.17 nM.

As to B1, a half-maximal effect (EC50) was put at 1.61 nM.

For B10, the concentration giving a half-maximal response (EC50) was determined as 4.6 nM.

In another experiment the target is T1, human CCR8. Briefly: FACS, HEK293-hCCR8 cells. The protocol: as §1
For B2, the half-maximal effective concentration (EC50) was found to be 1.1 nM.

As to B3, the response was half-maximal at 0.58 nM (EC50).

B4 displayed a concentration for a half-maximal effect (EC50) of 0.34 nM.

Molecule B5 returned an EC50 of 0.58 nM.

For the molecule B6, the midpoint of the response, the EC50, lay at 0.8 nM.

Molecule B7 showed a concentration for a half-maximal effect (EC50) of 0.62 nM.

As for B8, the EC50 amounted to 0.86 nM.

The term EC50 denotes the concentration needed to bring the measured effect to its halfway point.
